Data set [1] deals with Antp HD-DERT11 (UniProt P02833). The data set is described as follows: fluorescence anisotropy. As to conditions: pH 5.8, 200 mM KCl, Antp Kd: 20 mM potassium succinate pH 5.8, 0.4 mM NaF, HMGB1: 10 mM K phosphate pH 7.5, 1 mM DTT, 1 mM MgCl2, 100 mM KCl, 25 C, Antp stopped-flow: …. In general terms: In fluorescence polarisation assays a small probe gives low polarisation when free and higher when bound to something large.

The target of data set [2] is Antp HD-DERT7 (UniProt P02833). The data set is described as follows: fluorescence anisotropy. As to conditions: pH 5.8, 200 mM KCl, Antp Kd: 20 mM potassium succinate pH 5.8, 0.4 mM NaF, HMGB1: 10 mM K phosphate pH 7.5, 1 mM DTT, 1 mM MgCl2, 100 mM KCl, 25 C, Antp stopped-flow: ….
Sequence of Antp HD-DERT7 (P02833 whole entry): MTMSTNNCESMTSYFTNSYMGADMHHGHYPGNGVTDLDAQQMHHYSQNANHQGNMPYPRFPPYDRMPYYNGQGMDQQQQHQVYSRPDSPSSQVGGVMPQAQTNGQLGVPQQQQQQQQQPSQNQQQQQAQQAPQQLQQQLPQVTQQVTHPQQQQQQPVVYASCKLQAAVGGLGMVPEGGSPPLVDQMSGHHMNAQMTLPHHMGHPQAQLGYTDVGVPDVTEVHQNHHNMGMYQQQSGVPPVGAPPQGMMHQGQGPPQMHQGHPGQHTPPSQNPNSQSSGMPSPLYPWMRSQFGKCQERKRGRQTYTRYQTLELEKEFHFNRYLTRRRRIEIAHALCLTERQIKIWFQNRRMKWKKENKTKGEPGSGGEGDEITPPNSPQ
Data set [3] concerns the target Antp HD-DERT16 (UniProt P02833). Kind of data set: fluorescence anisotropy. As to conditions: pH 5.8, 200 mM KCl, Antp Kd: 20 mM potassium succinate pH 5.8, 0.4 mM NaF, HMGB1: 10 mM K phosphate pH 7.5, 1 mM DTT, 1 mM MgCl2, 100 mM KCl, 25 C, Antp stopped-flow: ….
The target of data set [4] is Antp HD (control without DERT; Antp HD-MID) (UniProt P02833). The data set is described as follows: fluorescence anisotropy. As to conditions: pH 5.8, 200 mM KCl, Antp Kd: 20 mM potassium succinate pH 5.8, 0.4 mM NaF, HMGB1: 10 mM K phosphate pH 7.5, 1 mM DTT, 1 mM MgCl2, 100 mM KCl, 25 C, Antp stopped-flow: ….
Sequence of Antp HD (control without DERT; Antp HD-MID) (P02833 whole entry): as above
For data set [5], the target named is HMGB1 full-length (human, UniProt P09429 1-215). The data set is described as follows: competition (fluorescence anisotropy); 10 mM K phosphate pH 7.5, 1 mM DTT, 1 mM MgCl2, 100 mM KCl, 25 C; apparent Kd; Antp Kd: 20 mM potassium succinate pH 5.8, 0.4 mM NaF, 200 mM KCl; HMGB1: 10 mM K phosphate pH 7.5, 1 mM DTT, 1 mM MgCl2, 100 mM KCl, 25 C; Antp stopped-flow: 1. As to conditions: protein: recombinant.
Sequence of HMGB1 full-length (P09429 whole entry): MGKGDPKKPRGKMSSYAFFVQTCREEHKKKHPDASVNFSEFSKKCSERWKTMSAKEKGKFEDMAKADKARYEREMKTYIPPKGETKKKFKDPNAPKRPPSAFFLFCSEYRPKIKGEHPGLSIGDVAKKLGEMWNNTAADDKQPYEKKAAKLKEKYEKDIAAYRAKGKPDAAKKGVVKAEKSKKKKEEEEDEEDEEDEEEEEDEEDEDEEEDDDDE

For two molecules, Kd results are on record in paper PMC10250230, “Negatively charged, intrinsically disordered regions can accelerate target search by DNA-binding proteins”.

Sequence of Antp HD-DERT11 (P02833 whole entry): as the sequence (P02833 whole entry) above
Sequence of Antp HD-DERT16 (P02833 whole entry): as above

For “TAMRA-labeled 15-bp Antp recognition DNA”, the Kd in data set [1] is 69 nM; in data set [2] it was 19 nM; in data set [3], 61 nM; in data set [4] it was 2.6 nM.

B1: unlabeled cisplatin-modified DNA (dsDNA)
DNA 1: CTCTGGACCTTCCTTTCTTC
DNA 2: GAAGAAAGGAAGGTCCAGAG
modifications: cisplatin adduct
Turning to B1, the Kd in data set [5] worked out at 17 ± 3 nM.
